According to publication PMC4512722:

Tests used:
[1] = molecular target: tomato pectin methylesterase PME1 (tomato) (UniProt P14280)
[2] = molecular target: tomato pectin methylesterase PME1 (tomato) (UniProt P14280); assay: SPR; tomato PME1 immobilised by amine coupling on a COOH5 chip (SensiQ Pioneer), VvPMEI1 injected at 2.3-300 nM, 25°C, 10 mM HEPES pH 7.5, 0.1 M NaCl, 0.005% Tween-20; 1:1 interaction model
[3] = molecular target: tomato pectin methylesterase PME1 (tomato) (UniProt P14280); assay: SPR; tomato PME1 immobilised by amine coupling on a COOH5 chip (SensiQ Pioneer), VvPMEI1 injected at 2.3-300 nM, 25°C, 10 mM NaOAc pH 5.5, 0.1 M NaCl, 0.005% Tween-20; 1:1 interaction model

UniProt P14280, sequence (P14280 230-546): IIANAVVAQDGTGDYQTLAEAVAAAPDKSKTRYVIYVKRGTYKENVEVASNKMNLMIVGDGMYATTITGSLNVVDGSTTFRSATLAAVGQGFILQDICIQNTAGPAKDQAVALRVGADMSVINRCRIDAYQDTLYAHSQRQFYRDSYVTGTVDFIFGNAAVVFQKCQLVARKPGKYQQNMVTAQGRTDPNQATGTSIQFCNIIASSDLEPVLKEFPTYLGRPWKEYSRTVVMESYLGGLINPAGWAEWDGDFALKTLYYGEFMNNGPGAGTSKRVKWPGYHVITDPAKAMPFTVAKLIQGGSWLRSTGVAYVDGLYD

- inhibitory activity (%) at pH 6.5, inhibition at pH 5.5 taken as 100% [1]: 100%
- inhibitory activity (%) at pH 7.5, inhibition at pH 5.5 taken as 100% [1]: 84%
- Kd [2]: 35 nM
- koff [2]: 0.026 s⁻¹
- Kd [3]: 4.77 nM
- koff [3]: 0.00317 s⁻¹
Substance: VvPMEI1, pectin methylesterase inhibitor of Vitis vinifera (recombinant) (natural protein)
